Measurements taken from the supplement of paper PMC9112550, “Optimization of the antimicrobial peptide Bac7 by deep mutational scanning” (BMC Biology, 2022).

System: Escherichia coli TOP10
Test: shrunken log2 fold change of peptide-encoding DNA abundance (4.5 h post-induction vs induction); higher = less antimicrobial activity (less host growth inhibition)
Settings: time post-induction: 4.5 h; library: site-saturation at positions 5, 18, 19, 20
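Also: peptides expressed intracellularly from a pBAD plasmid library in pooled LB shake-flask culture, induced with 0.3% L-arabinose, DNA abundance read by NGS, three biological replicates, DESeq2 with apeglm shrinkage.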

Sequence | shrunken log2 fold change
RRIRSRPPRLPRPRPRPMVHPRP | -0.026
RRIRSRPPRLPRPRPRPMVMPRP | 0.0113
RRIRSRPPRLPRPRPRPMWLPRP | 0.0415
RRIRSRPPRLPRPRPRPMYQPRP | -0.594
RRIRSRPPRLPRPRPRPMYRPRP | -0.172
RRIRSRPPRLPRPRPRPMYVPRP | -0.84
RRIRSRPPRLPRPRPRPNADPRP | 0.113
RRIRSRPPRLPRPRPRPNAGPRP | 0.0362
RRIRSRPPRLPRPRPRPNAMPRP | -0.0346
RRIRSRPPRLPRPRPRPNCEPRP | -0.133
RRIRSRPPRLPRPRPRPNFFPRP | 0.179
RRIRSRPPRLPRPRPRPNHGPRP | -0.4
RRIRSRPPRLPRPRPRPNHKPRP | -0.738
RRIRSRPPRLPRPRPRPNKSPRP | -0.266
RRIRSRPPRLPRPRPRPNMCPRP | -0.138
RRIRSRPPRLPRPRPRPNMMPRP | -0.166
RRIRSRPPRLPRPRPRPNNAPRP | -0.38
RRIRSRPPRLPRPRPRPNPDPRP | -0.123
RRIRSRPPRLPRPRPRPNPIPRP | 0.0127
RRIRSRPPRLPRPRPRPNREPRP | -0.138
RRIRSRPPRLPRPRPRPNRTPRP | -0.0602
RRIRSRPPRLPRPRPRPNSNPRP | -0.857
RRIRSRPPRLPRPRPRPNTYPRP | -0.232
RRIRSRPPRLPRPRPRPNWLPRP | 0.18
RRIRSRPPRLPRPRPRPNWTPRP | -0.000246

Sequence | shrunken log2 fold change
RRIRSRPPRLPRPRPRPNWVPRP | -0.214
RRIRSRPPRLPRPRPRPNYTPRP | -0.479
RRIRSRPPRLPRPRPRPPADPRP | 0.981
RRIRSRPPRLPRPRPRPPAFPRP | -0.00342
RRIRSRPPRLPRPRPRPPAKPRP | 1.05
RRIRSRPPRLPRPRPRPPDGPRP | 0.447
RRIRSRPPRLPRPRPRPPEVPRP | 0.287
RRIRSRPPRLPRPRPRPPFFPRP | 0.143
RRIRSRPPRLPRPRPRPPFNPRP | -0.298
RRIRSRPPRLPRPRPRPPIDPRP | -0.0487
RRIRSRPPRLPRPRPRPPIRPRP | 0.129
RRIRSRPPRLPRPRPRPPIWPRP | 0.0326
RRIRSRPPRLPRPRPRPPKAPRP | -0.259
RRIRSRPPRLPRPRPRPPLEPRP | 0.367
RRIRSRPPRLPRPRPRPPLHPRP | -0.00448
RRIRSRPPRLPRPRPRPPLRPRP | 0.249
RRIRSRPPRLPRPRPRPPMCPRP | 0.00128
RRIRSRPPRLPRPRPRPPMKPRP | 0.194
RRIRSRPPRLPRPRPRPPNDPRP | -0.0183
RRIRSRPPRLPRPRPRPPNSPRP | -0.251
RRIRSRPPRLPRPRPRPPPHPRP | 0.752
RRIRSRPPRLPRPRPRPPPVPRP | 0.745
RRIRSRPPRLPRPRPRPPQEPRP | 0.295
RRIRSRPPRLPRPRPRPPQPPRP | 0.432
RRIRSRPPRLPRPRPRPPSLPRP | -0.119

Sequence | shrunken log2 fold change
RRIRSRPPRLPRPRPRPPSRPRP | 0.263
RRIRSRPPRLPRPRPRPPTWPRP | 0.326
RRIRSRPPRLPRPRPRPPVKPRP | -0.136
RRIRSRPPRLPRPRPRPPVWPRP | 0.48
RRIRSRPPRLPRPRPRPPWSPRP | 0.25
RRIRSRPPRLPRPRPRPPYIPRP | -0.296
RRIRSRPPRLPRPRPRPQAAPRP | 0.544
RRIRSRPPRLPRPRPRPQADPRP | -0.0788
RRIRSRPPRLPRPRPRPQANPRP | -0.0559
RRIRSRPPRLPRPRPRPQCNPRP | -0.13
RRIRSRPPRLPRPRPRPQDRPRP | -0.0318
RRIRSRPPRLPRPRPRPQGAPRP | 2.34
RRIRSRPPRLPRPRPRPQHAPRP | -0.153
RRIRSRPPRLPRPRPRPQHWPRP | 0.015
RRIRSRPPRLPRPRPRPQKIPRP | -0.53
RRIRSRPPRLPRPRPRPQKWPRP | -0.0746
RRIRSRPPRLPRPRPRPQMVPRP | -0.102
RRIRSRPPRLPRPRPRPQMYPRP | -0.159
RRIRSRPPRLPRPRPRPQPVPRP | 0.0573
RRIRSRPPRLPRPRPRPQQNPRP | -0.0687
RRIRSRPPRLPRPRPRPQQRPRP | 0.153
RRIRSRPPRLPRPRPRPQQTPRP | 0.0905
RRIRSRPPRLPRPRPRPQREPRP | -0.019
RRIRSRPPRLPRPRPRPQSCPRP | -0.00487
RRIRSRPPRLPRPRPRPQSYPRP | 0.107
